Literature values, collected in paper PMC4082410.

Tests used:
Test in all cases: kinetics
[1] = molecular target: quinol MADH (Paracoccus denitrificans) (UniProt P22619)
[2] = molecular target: preMADH (Paracoccus denitrificans) (UniProt P22619)
[3] = molecular target: quinone MADH (Paracoccus denitrificans) (UniProt P22619)

Row | Substance | Kd [1] [µM] | Kd [2] [nM] | Kd [3] [µM]
1 | bis-Fe(IV) MauG (from UniProt Q51658) | 11.2 | < 1500 | 
2 | diferrous MauG (from UniProt Q51658) |  |  | 10.1
